From paper PMC8004985, “Affinity Purification of Angiotensin Converting Enzyme Inhibitory Peptides from Wakame (Undaria Pinnatifida) Using Immobilized ACE on Magnetic Metal Organic Frameworks” (Marine Drugs, 2021)

What was measured:
[1] = Enzyme characterisation of free and immobilized ACE (optimum pH, temperature, Ea, Km, Vmax); format: biochemical, pig
Experimental: (§1) The ACE was prepared from pig lung and the precipitates were dialyzed and used as a crude enzyme sample for the immobilization of ACE [6]. Twenty-five milligrams of Fe3O4@ZIF-90 nanoparticles were dispersed in 2 mL of crude sample, and incubated with shaking for a certain time at different temperatures to immobilize the ACE. The immobilized ACE (Fe3O4@ZIF-90-ACE) was magnetically recovered and the precipitate was washed several times by 0.1 M phosphate (PBS) buffer until the supernatant was free of protein. Immobilized ACE was quantified using the Bradford method, which used bovine serum albumin (BSA) as the standard. Finally, the obtained immobilized ACE was stored at −80 °C. Enzyme loading capacity was calculated using Equation (1):(1) Enzyme loading capacity(mg⋅g^−1)=(Total protein content-supernatant protein content) /Total mass of Fe3O4@ZIF-90
(§2) ACE activity was evaluated by measuring the amount of hippuric acid (HA). The assay mixture (0.3 mL) consisted of 130 µL BBS buffer pH 8.3 ([…], containing 0.3 M NaCl), 40 µL HHL (5 mM), and different amounts of the free and immobilized ACE. Incubation was carried out at 37 °C for 10 min and was terminated by addition of HCl (0.1 mL, 1 M). The HA content of the mixture was determined by RP-HPLC (Agilent 1260) at 228 nm with a DAD detector. One unit of ACE enzyme activity (U) was defined as the amount of enzyme catalyzing HHL to generate 1 µM of HA per minute under the experimental conditions.

[2] = Enzymatic stability and reusability of free and immobilized ACE; format: biochemical, pig
Experimental: as §1
To determine thermal stability, the immobilized ACE was dispersed in PBS buffer in the absence of the HHL substrate at 20–60 °C for 1 h. […]
The storage stability of immobilized ACE was determined by storing at −20 °C for 30 days. The enzyme activity was then measured, and the relative activity was compared with that of the untreated ACE. The immobilized ACE was evaluated over six successive cycles to investigate the reusability stability; the first-time detection activity was considered as 100%.
as §2

[3] = HHL substrate, Table S2, Lineweaver-Burk

B1: free ACE: free angiotensin-I-converting enzyme (protein, UniProt P12821 30-1306, looked up)
Angiotensin-converting enzyme: LDPGLQPGNFSADEAGAQLFAQSYNSSAEQVLFQSVAASWAHDTNITAENARRQEEAALLSQEFAEAWGQKAKELYEPIWQNFTDPQLRRIIGAVRTLGSANLPLAKRQQYNALLSNMSRIYSTAKVCLPNKTATCWSLDPDLTNILASSRSYAMLLFAWEGWHNAAGIPLKPLYEDFTALSNEAYKQDGFTDTGAYWRSWYNSPTFEDDLEHLYQQLEPLYLNLHAFVRRALHRRYGDRYINLRGPIPAHLLGDMWAQSWENIYDMVVPFPDKPNLDVTSTMLQQGWNATHMFRVAEEFFTSLELSPMPPEFWEGSMLEKPADGREVVCHASAWDFYNRKDFRIKQCTRVTMDQLSTVHHEMGHIQYYLQYKDLPVSLRRGANPGFHEAIGDVLALSVSTPEHLHKIGLLDRVTNDTESDINYLLKMALEKIAFLPFGYLVDQWRWGVFSGRTPPSRYNFDWWYLRTKYQGICPPVTRNETHFDAGAKFHVPNVTPYIRYFVSFVLQFQFHEALCKEAGYEGPLHQCDIYRSTKAGAKLRKVLQAGSSRPWQEVLKDMVGLDALDAQPLLKYFQPVTQWLQEQNQQNGEVLGWPEYQWHPPLPDNYPEGIDLVTDEAEASKFVEEYDRTSQVVWNEYAEANWNYNTNITTETSKILLQKNMQIANHTLKYGTQARKFDVNQLQNTTIKRIIKKVQDLERAALPAQELEEYNKILLDMETTYSVATVCHPNGSCLQLEPDLTNVMATSRKYEDLLWAWEGWRDKAGRAILQFYPKYVELINQAARLNGYVDAGDSWRSMYETPSLEQDLERLFQELQPLYLNLHAYVRRALHRHYGAQHINLEGPIPAHLLGNMWAQTWSNIYDLVVPFPSAPSMDTTEAMLKQGWTPRRMFKEADDFFTSLGLLPVPPEFWNKSMLEKPTDGREVVCHASAWDFYNGKDFRIKQCTTVNLEDLVVAHHEMGHIQYFMQYKDLPVALREGANPGFHEAIGDVLALSVSTPKHLHSLNLLSSEGGSDEHDINFLMKMALDKIAFIPFSYLVDQWRWRVFDGSITKENYNQEWWSLRLKYQGLCPPVPRTQGDFDPGAKFHIPSSVPYIRYFVSFIIQFQFHEALCQAAGHTGPLHKCDIYQSKEAGQRLATAMKLGFSRPWPEAMQLITGQPNMSASAMLSYFKPLLDWLRTENELHGEKLGWPQYNWTPNSARSEGPLPDSGRVSFLGLDLDAQQARVGQWLLLFLGIALLVATLGLSQRLFSIRHRSLHRHSHGPQFGSEVELRHS
In the case of B1, the “loss of relative activity between 35°C and 50°C” value ([1]; 35°C to 50°C) is reported as greater than 40%, the “Ea (activation energy)” value ([1]; Arrhenius equation, Fig. S5 (c)) is reported as 8.535 kcal/mol and the “Optimum pH” value ([1]; Fig. S5 (a)) is reported as 8.3. For the same molecule, the optimum temperature ([1]; Fig. S5 (b)) was 40 °C, the Km [1, 3] was 1960 µM and the Vmax [1, 3] was 46.296 mmol/min. For the same molecule, the catalytic efficiency ([1]; Table S2) was 23.596, the “activity lost on storage” value ([2]; 30 days, −20 °C) was 45.04% and the “residual activity (thermal stability)” value ([2]; after heating at 60 °C for 1 h, PBS buffer, absence of HHL) was 22.03%. The “relative activity (pH stability)” value ([2]; pH 5.0–10.0 (method: pH 5.0–9.0), 1 h) was 37.05%.
